Source: article PMC3514216, “SRC Homology 2 Domain Binding Sites in Insulin, IGF-1 and FGF receptor mediated signaling networks reveal an extensive potential interactome” (Cell Communication and Signaling : CCS, 2012)
Where “and” joins values, the source holds several entries; their conditions need not be identical. Equal entries are not always repeated.

How the values were obtained:
[1] = target: IRS-1 (Y1179) phosphopeptide NGLNpYIDLDLV, Rhodamine B-labelled; experiment: fluorescence polarisation; Rhodamine B-labelled peptide in solution with SH2 domain; Beacon 2000; as previously described [40]
[2] = target: IRS-1 (Y896) phosphopeptide SPGEpYVNIEFG, Rhodamine B-labelled; experiment: as above
[3] = target: p62DOK1 (Y398) phosphopeptide KEEGpYELPYNP, Rhodamine B-labelled; experiment: as above
[4] = target: FGFR1 (Y463) phosphopeptide GVSEpYELPEDP, Rhodamine B-labelled; experiment: as above
[5] = target: FGFR3 (Y760) phosphopeptide STDEpYLDLSAP, Rhodamine B-labelled; experiment: as above
[6] = target: CD150 (Y142) (Homo sapiens) (UniProt P20963); conditions: cited from earlier work
CD150 (Y142) (Homo sapiens), sequence (P20963 whole entry, looked up): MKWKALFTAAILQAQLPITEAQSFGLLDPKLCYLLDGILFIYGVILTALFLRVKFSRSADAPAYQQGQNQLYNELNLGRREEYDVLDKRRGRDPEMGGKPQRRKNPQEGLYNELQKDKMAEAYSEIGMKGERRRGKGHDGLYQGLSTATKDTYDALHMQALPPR

[7] = target: IRS-1 (Homo sapiens) (UniProt P35568); conditions: cited from earlier work
IRS-1 (Homo sapiens), sequence (P35568 whole entry): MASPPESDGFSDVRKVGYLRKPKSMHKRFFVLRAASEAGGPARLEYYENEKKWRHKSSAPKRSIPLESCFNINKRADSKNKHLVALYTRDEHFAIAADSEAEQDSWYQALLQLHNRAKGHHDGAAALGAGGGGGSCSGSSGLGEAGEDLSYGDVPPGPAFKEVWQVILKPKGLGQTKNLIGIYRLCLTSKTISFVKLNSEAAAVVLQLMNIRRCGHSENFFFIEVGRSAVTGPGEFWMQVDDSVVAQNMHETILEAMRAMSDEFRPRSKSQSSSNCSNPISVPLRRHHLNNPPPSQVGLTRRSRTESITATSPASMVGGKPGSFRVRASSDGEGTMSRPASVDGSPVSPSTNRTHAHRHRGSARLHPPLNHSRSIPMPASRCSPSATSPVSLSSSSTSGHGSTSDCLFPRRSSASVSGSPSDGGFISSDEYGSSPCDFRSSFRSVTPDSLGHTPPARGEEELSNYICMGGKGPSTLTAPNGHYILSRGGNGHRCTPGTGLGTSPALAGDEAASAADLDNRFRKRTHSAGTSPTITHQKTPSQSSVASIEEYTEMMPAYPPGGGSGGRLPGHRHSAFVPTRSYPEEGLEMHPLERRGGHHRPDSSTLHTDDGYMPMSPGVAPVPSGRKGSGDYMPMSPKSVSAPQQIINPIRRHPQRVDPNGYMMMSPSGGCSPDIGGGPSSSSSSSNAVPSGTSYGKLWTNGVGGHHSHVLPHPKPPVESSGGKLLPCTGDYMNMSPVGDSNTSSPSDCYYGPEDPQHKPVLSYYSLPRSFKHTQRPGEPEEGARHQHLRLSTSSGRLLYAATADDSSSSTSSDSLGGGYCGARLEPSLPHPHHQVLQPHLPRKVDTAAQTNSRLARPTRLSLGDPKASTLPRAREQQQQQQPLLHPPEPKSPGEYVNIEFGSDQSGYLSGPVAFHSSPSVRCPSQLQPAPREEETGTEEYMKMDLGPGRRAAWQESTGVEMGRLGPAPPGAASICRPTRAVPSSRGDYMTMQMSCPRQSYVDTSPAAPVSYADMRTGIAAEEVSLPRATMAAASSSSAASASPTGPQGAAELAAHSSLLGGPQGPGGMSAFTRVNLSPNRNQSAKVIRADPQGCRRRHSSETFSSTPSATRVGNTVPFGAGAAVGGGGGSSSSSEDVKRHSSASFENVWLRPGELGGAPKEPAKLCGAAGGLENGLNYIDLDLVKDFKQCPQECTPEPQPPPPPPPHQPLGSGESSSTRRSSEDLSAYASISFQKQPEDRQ

[8] = target: IRS-1 (Y896) (Homo sapiens) (UniProt P35568); conditions: cited from earlier work
IRS-1 (Y896) (Homo sapiens), sequence (P35568 whole entry, looked up): as the sequence (P35568 whole entry) above

[9] = target: ShcA (Y426) (Homo sapiens) (UniProt P29353); conditions: cited from earlier work
ShcA (Y426) (Homo sapiens), sequence (P29353 whole entry, looked up): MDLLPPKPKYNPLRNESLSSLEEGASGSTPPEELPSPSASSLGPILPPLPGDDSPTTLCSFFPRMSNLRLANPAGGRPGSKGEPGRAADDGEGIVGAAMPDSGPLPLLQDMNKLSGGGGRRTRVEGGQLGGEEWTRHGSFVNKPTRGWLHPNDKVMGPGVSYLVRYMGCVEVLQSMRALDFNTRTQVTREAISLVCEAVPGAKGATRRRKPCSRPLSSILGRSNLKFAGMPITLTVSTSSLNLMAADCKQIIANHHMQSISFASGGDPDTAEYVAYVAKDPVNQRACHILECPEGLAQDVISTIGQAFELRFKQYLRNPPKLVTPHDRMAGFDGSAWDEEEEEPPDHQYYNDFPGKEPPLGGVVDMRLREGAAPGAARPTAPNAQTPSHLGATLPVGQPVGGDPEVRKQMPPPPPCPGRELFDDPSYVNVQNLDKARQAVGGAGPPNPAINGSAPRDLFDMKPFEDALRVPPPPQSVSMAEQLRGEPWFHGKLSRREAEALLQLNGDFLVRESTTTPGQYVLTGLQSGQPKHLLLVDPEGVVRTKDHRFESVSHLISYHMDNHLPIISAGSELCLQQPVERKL

[10] = target: B3AT (Y921) (Homo sapiens) (UniProt P02730); conditions: cited from earlier work
B3AT (Y921) (Homo sapiens), sequence (P02730 whole entry, looked up): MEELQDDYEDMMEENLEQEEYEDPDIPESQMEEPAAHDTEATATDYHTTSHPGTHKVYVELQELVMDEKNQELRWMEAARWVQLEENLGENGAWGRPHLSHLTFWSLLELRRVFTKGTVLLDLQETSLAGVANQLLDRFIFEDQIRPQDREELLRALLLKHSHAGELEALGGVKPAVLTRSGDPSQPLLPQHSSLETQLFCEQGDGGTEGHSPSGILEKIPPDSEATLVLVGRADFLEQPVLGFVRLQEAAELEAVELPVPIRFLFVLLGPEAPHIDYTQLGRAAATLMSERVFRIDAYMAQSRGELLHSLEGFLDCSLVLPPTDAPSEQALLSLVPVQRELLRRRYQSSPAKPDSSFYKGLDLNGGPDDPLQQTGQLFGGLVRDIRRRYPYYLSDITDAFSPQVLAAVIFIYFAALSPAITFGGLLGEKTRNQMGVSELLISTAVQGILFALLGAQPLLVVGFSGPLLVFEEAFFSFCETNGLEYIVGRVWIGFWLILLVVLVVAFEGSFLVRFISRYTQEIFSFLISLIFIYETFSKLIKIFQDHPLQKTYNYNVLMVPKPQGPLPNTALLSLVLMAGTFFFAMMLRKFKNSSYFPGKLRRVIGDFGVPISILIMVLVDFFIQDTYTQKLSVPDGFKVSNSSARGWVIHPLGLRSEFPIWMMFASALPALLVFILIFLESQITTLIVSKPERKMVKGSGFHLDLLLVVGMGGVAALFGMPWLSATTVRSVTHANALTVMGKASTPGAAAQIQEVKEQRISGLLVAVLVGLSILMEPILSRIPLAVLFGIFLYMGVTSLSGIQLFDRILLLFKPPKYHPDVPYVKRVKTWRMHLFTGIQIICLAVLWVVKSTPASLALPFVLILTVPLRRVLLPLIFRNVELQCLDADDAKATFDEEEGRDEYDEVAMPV

[11] = target: p130Cas (Y664) (Homo sapiens) (UniProt P56945); conditions: cited from earlier work
[12] = target: p130Cas (Y362) (Homo sapiens) (UniProt P56945); conditions: cited from earlier work
[13] = target: IRS-1 (Y1012) (Homo sapiens) (UniProt P35568); conditions: cited from earlier work
IRS-1 (Y1012) (Homo sapiens), sequence (P35568 whole entry, looked up): as the sequence (P35568 whole entry) above

[14] = target: IRS-1 (Y1179) (Homo sapiens) (UniProt P35568); conditions: cited from earlier work
IRS-1 (Y1179) (Homo sapiens), sequence (P35568 whole entry, looked up): as the sequence (P35568 whole entry) above

[15] = target: PDGFRb (Y1021) (Homo sapiens) (UniProt P09619); conditions: cited from earlier work
PDGFRb (Y1021) (Homo sapiens), sequence (P09619 whole entry, looked up, the tested form may be a part): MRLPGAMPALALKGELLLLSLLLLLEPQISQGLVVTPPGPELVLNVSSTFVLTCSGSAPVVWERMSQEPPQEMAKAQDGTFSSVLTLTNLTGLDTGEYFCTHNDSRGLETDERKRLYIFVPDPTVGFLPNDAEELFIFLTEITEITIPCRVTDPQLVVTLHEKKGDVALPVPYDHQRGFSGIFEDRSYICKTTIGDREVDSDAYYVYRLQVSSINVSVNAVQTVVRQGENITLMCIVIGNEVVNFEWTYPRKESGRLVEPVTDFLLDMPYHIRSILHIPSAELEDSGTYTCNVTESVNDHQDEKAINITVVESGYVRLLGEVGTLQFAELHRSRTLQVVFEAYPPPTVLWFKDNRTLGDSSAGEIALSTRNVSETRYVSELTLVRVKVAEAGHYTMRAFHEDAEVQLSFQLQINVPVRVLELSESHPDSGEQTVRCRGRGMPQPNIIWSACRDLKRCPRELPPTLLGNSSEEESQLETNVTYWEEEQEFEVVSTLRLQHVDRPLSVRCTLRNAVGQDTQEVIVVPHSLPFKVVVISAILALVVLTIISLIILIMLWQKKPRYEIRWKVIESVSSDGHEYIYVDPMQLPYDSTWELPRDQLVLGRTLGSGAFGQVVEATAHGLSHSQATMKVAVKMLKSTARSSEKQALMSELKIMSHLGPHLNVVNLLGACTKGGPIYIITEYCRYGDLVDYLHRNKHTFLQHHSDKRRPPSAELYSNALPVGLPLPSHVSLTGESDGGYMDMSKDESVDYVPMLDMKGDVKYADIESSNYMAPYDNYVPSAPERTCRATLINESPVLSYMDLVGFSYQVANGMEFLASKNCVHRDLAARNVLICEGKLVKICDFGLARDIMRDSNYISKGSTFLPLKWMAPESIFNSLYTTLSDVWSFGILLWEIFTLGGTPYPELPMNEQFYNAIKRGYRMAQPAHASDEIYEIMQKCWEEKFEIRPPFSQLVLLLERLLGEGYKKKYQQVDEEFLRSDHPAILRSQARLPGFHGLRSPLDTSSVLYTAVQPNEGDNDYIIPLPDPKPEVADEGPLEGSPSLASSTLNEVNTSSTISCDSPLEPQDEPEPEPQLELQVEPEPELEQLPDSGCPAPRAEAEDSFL

[16] = target: p130Cas (Y362) phosphopeptide AEDVpYDVPPPA, Rhodamine B-labelled; experiment: fluorescence polarisation; Rhodamine B-labelled peptide in solution with SH2 domain; Beacon 2000; as previously described [40]

Grb2 SH2, sequence (P62993 57-155): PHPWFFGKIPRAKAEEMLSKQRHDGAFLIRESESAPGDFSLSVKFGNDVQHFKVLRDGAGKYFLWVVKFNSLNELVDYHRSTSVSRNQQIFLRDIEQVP
Plcγ-C SH2 (C-terminal), sequence (P19174 668-756): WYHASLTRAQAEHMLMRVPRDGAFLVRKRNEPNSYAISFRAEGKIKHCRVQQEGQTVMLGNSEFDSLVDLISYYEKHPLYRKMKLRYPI
Crk SH2, sequence (P46108 10-121): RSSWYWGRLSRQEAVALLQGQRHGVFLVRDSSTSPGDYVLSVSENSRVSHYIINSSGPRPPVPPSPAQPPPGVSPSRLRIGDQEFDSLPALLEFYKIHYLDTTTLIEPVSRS
Shc1 SH2, sequence (P29353 485-582): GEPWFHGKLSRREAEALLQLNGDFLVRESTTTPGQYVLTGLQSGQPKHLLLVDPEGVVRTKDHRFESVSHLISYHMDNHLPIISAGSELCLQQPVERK

Substance “GST-PI3K1_N SH2 domain (domain or fragment)” has a Kd [1] of 15000 nM, a Kd [2] of 2680 nM and a Kd [3] of 1850 nM.

“GST-Rasa1_C SH2 domain (domain or fragment)” gave a Kd [4] of over 17000 nM, a Kd [5] of over 17000 nM and a Kd [3] of 1390 nM.

In the case of Shc1 SH2 (from UniProt P29353), the Kd [6] is given as 50000 nM.

With “GST-Rasa1_N SH2 domain (domain or fragment)” the Kd [3] was 410 nM.

For Grb2 SH2 (from UniProt P62993), the Kd [7] is given as 35 nM, the Kd [8] is given as 35 nM and the Kd [9] is given as 23 nM and 53 nM.

In the case of Nck1 SH2 (from UniProt P16333), the Kd [10] is given as 60 nM.

For Src SH2 (from UniProt P12931), the Kd [11] is listed as 35 nM.

In the case of Crk SH2 (from UniProt P46108), the Kd [12] is given as 545 nM.

In the case of “GST-PI3K1_C SH2 domain (domain or fragment)”, the Kd [5] is reported as 2140 nM and the Kd [3] is reported as 13000 nM.

In the case of “Ptpn11_N SH2 (N-terminal) (from UniProt Q06124)”, the Kd [13] is listed as 110000 nM.

For “Ptpn11 tandem SH2 tandem SH2 (from UniProt Q06124)”, the Kd [14] is listed as 3 nM.

For “Plcγ-C SH2 (C-terminal) (from UniProt P19174)”, the Kd [15] is given as 4100 nM.

With “GST-Ptpn11_N SH2 domain (domain or fragment)” the Kd [5] was 25000 nM, the Kd [2] was 2080 nM and the Kd [16] was over 50000 nM. For the same substance, the Kd [3] was over 50000 nM.
